Assay in all cases: FRET or BRET
For orientation: In BRET a luciferase serves as donor, and the signal depends on an acceptor being close.

Assay [1] concerns the target RNC_(RodZ): ribosome-nascent chain complex displaying the N-terminal 180 amino acids of RodZ (UniProt P27434).
Assay [2] has the same target. This is another data set of the same source.
In assay [3] the target is RNC_(RodZ) bearing the mutant TMD with two arginines introduced (UniProt P27434).
For assay [4], the target named is RNC_(RodZ): ribosome-nascent chain complex displaying the N-terminal 180 amino acids of RodZ (UniProt P27434). This is another data set of the same source.
Assay [5] concerns the target RNC_(RodZ160): ribosome-nascent chain complex with a RodZ nascent chain of 160 amino acids (UniProt P27434).

Our source for the Kd and reduction in Cm donor fluorescence (FRET) values is PMC5674894.

Where two headings read alike, the source gives them in different places.

A word on the Kd: it is the concentration at which binding is half-saturated. Read a low Kd as a tighter complex. For the substance “SecA(C98S/S12C) labeled at residue 12 with BODIPY-FL (from UniProt P10408 1-901) (enzyme)”, the equilibrium dissociation constant (Kd) in assay [1] turned out to be 19 nM; in assay [2] it was 55 nM; in assay [3], 25.9 nM; in assay [4], 1 nM; in assay [5], 0.94 nM. The reduction in Cm donor fluorescence (FRET) in assay [4] was 44%.
